Patent publication US11951128B2, “Compositions and methods for the isolation and/or generation of specific CD4+ and CD8+ T-cell subsets” (LA JOLLA INSTITUTE FOR ALLERGY AND IMMUNOLOGY, priority 2017, dated 2024)

B1: IL-12: pro-inflammatory cytokine (protein, UniProt P29459 23-219; P29460 23-328, looked up)
Interleukin-12 subunit alpha: RNLPVATPDPGMFPCLHHSQNLLRAVSNMLQKARQTLEFYPCTSEEIDHEDITKDKTSTVEACLPLELTKNESCLNSRETSFITNGSCLASRKTSFMMALCLSSIYEDLKMYQVEFKTMNAKLLMDPKRQIFLDQNMLAVIDELMQALNFNSETVPQKSSLEEPDFYKTKIKLCILLHAFRIRAVTIDRVMSYLNAS
Interleukin-12 subunit beta: IWELKKDVYVVELDWYPDAPGEMVVLTCDTPEEDGITWTLDQSSEVLGSGKTLTIQVKEFGDAGQYTCHKGGEVLSHSLLLLHKKEDGIWSTDILKDQKEPKNKTFLRCEAKNYSGRFTCWWLTTISTDLTFSVKSSRGSSDPQGVTCGAATLSAERVRGDNKEYEYSVECQEDSACPAAEESLPIEVMVDAVHKLKYENYTSSFFIRDIIKPDPPKNLQLKPLKNSRQVEVSWEYPDTWSTPHSYFSLTFCVQVQGKSKREKKDRVFTDKTSATVICRKNASISVRAQDRYYSSSWSEWASVPCS
B2: IL-10: anti-inflammatory cytokine (protein, UniProt P22301 19-178, looked up)
Interleukin-10: SPGQGTQSENSCTHFPGNLPNMLRDLRDAFSRVKTFFQMKDQLDNLLLKESLLEDFKGYLGCQALSEMIQFYLEEVMPQAENQDPDIKAHVNSLGENLKTLRLRLRRCHRFLPCENKSKAVEQVKNAFNKLQEKGIYKAMSEFDIFINYIEAYMTMKIRN

Legend:
B16 tumor cells = test: MHC class II expression on B16 tumor cells; format: cell-based, mouse
Description: As a result, most transferred CD4 CTL died in vivo. In addition, activated anti-tumor specific CD8 CTL kill the tumor cells in response to detecting their Ag on the tumor cells presented by MHC class I (OVA Ag on the B16-OVA). In addition they also secrete IFNg which in turn upregulate MHC class II expression on the tumor cells (right panel). Anti-tumor reactive CD8 T-cells become restrained (induction of PD-1) or undergo TL- or activation-induced cell death. Therefore, a combination of anti-tumor CD8 T-cells (or NK T-cells or DN T-cells) and anti-tumor CD4 CTL which can kill tumor cells once MHC class II is induced, can be a powerful anti-tumor immunotherapy.

CD8ab T-cells = test: induction of CD8αα on in vitro activated CD8ab T-cells, measured with TL tetramer; format: cell-based, mice; details: for generation of CD8αα effector memory precursor cells: WT, IL10−/− or IL21−/− CD8ab T-cells, anti-CD3/CD28, with or without IL12
Method: CD8ab T-cells isolated from wild type mice (WT) or IL10 deficient mice (IL10−/−), or IL21 deficient mice (IL21−/−) were activated in vitro with anti-CD3/CD28 and with or without IL12. Induction of CD8αα was measured using TL tetramer.

Row | Molecule | MHC class II (I-A^b) expression on tumor cells (B16 tumor cells) | generation of CD8αβ TEM/RM (CD8ab T-cells) | generation of CD8αα effector memory precursor cells (CD8ab T-cells)
1 | IFNg: soluble cytokine, the only member of the type II class of interferons | induce MHC class II (I-A^b) | – | –
2 | IL-21: anti-inflammatory cytokine | – | counteract | inhibit
3 | B1 | – | promotes | promotes
4 | B2 | – | counteract | inhibit
